Measurements reported in the nanobody polyreactivity screen of Harvey et al. (2022).

Assay: yeast display, Sf9 membrane polyspecificity reagent, FACS + sequencing; frameworks hold sequencing errors
In short: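 In a synthetic yeast display library (Saccharomyces cerevisiae BJ5465), nanobody expression was induced with galactose for 36–48 hours. FACS gates were set low and high (top ~1%) using anti-HA fluorescence for expression and streptavidin fluorescence for binding of the Sf9 membrane reagent. Each polyreactivity label is drawn from the gate of origin.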

QVQLVESGGGLVQAGGSLRLSCAAMGWYRPAPGKERELVATITWSGGSTYYADSVKGRFTISRDNAKNTVYLQMNSLKPEDNAVYYCNARATLLSPANTIRGYDYWGQGTQVTVSS
polyreactivity (PSR sort gate): low polyreactivity

KVQLVESGGGLVQAGGSLRISCAASGITFVRNAMGWYRQAPGKERELVAAISSGGSTYYADSVKGSFTISRDNAKITVYLLMYSLKPEDNAVYFCAVLSSWRFSGYDYWGQGTQVNVSS
polyreactivity (PSR sort gate): low polyreactivity

QVQLVESGGGLVQAGGSLRLSCAASGSIFRINTMGWYLQAPGKERELVAAISFSGTRTYYADSVKGRFTISRDNAKNTVYLQMNSLKPEDTAVYYCAAAGRYTYRTLRDYWGQGTQVTVSS
polyreactivity (PSR sort gate): high polyreactivity

QVQLVESGGGLVQAGGSLRLSCAASGYTFYENAMGWYRQAPGKERELVAAITSDGSTYYADSVKGRFTISRDNAKNTVYLQMNSLKPEDTAVYYCAVDEAPPELVYWFFTYYYGGQGTQVTVSS
polyreactivity (PSR sort gate): low polyreactivity

QVQLVETGGGLVQAGGSLRLSCAASGLIFTINAMGWYRQAPGKERELVAAITNGDSTHYADSVKGRFTISRDNAKNTVYLQMNSLKPEDTAVYYCAARSYTYYGLRFGYWGQGTQVTVSS
polyreactivity (PSR sort gate): high polyreactivity

QFHLVESGGGLVQAGGSLRLSCAASGYTFGKYAKGWYRHAPGKDRELVAGISSRGGSTYYADSVKWRFTISRDNAKNTVYLQMISLKPEYTAVYYCAAVAYTGGPRKLSFNYWGQGTQVTLSS
polyreactivity (PSR sort gate): high polyreactivity

QVQLVESGGGLVQAGGSLRLSCAASGSTRIYDMGCYRQAPAKERELVAAISSTGSTYYADSVKGRFTISRDNAKNTVYLQMNSLKPEDTAVYYCAAARYYRYDRYYSWGQGTQVTVTS
polyreactivity (PSR sort gate): high polyreactivity

QVQLVESGGGLVQAGGSLRLSCAASGITFYRYTMGWYRQAPGKERELVAAIRSGGSTYYADSVKGRFTISRDNAKNTVYLQMNSLKPEDTAVYYCAAPYYRYNVPYYGGNGGDYWGQGTQVTVSS
polyreactivity (PSR sort gate): high polyreactivity

QVQLVESGGGLVQAGGSLRLTCAASGSIFPRYAMGWYREAPGKERELVAAISFRGASTYYADSVKGRFTISRDTEKNTVYLQMNSLKPEDTAVYYWNAVSRSLNYDYWGQGTQVTVSS
polyreactivity (PSR sort gate): high polyreactivity

QVQLVESGGGLVQAGGSLRLSCAASGIISGRTGMGWYRQATGKERELVASISDSGSSTYYADSVKGRFTISRDNAKNTVYLQMNSLKPEDTAVYYCATDLLASRYGYWGQGTQVTVSS
polyreactivity (PSR sort gate): low polyreactivity

QVQLVESGGGLVQAGGSLRLSCAASGSIFEDYTMGWYRQAPGKERELVAAIDWSDASTFYADSVKGRFTISRDNAKNTVYLQMSLKPEDTAVYYCNVAIIFYDDDYWGQGTLVTVSS
polyreactivity (PSR sort gate): high polyreactivity

QVQLVESGGGLVHAGGSHRLSCAASGFTFTFYAMGWYRQAPVKERELVAAIRTSDGRTYYADSVKGRFTISRDNAKNTVYLQMNSLKPEDTAVYYCAAQVYRPRARYYEYDYWGQGTQVTVSS
polyreactivity (PSR sort gate): high polyreactivity

QVQLVESGGGLVQAGGSLRLSCAASGSIFYYYVMGWYRQAPGKEREFGAAISWGGDSTYYADSVKGRFTISRDNAMYTVYLQMNSLKPEDTAVYYCNADYPWSVVCYAYWGQGTQVTVSS
polyreactivity (PSR sort gate): low polyreactivity

QVQLVESRGGLVQAGGSLRLSCAASGRINSRYAMGLSRQEPGKERELVAAISWNGGSTYYADSVKGRFTISRDNAMNTVYFQMNSLKPEDTAVYYCAAYRPGPYAAYGYWGQGTQVTVSS
polyreactivity (PSR sort gate): high polyreactivity

QVQLVESGGGLVQAGGSLRLSCAASGRTFSGYAMGWYRQAPGKERELVAAISSGGGSTYYADSVKGRFTISRDIAKNTVYLQMNSLKPEDTAVYYCAADGYPGDYDYWGQGTQVTVSS
polyreactivity (PSR sort gate): low polyreactivity

QVQLVESGRGLVQAGGSLRLSCAASGIIFELYAMGWYRQAPGKEREFVAAINFSDGSTDYADSVKGRFTISRDNAKKTVYLKMNSLKPEDTAVYYCNADSIAYGSIIHGYWGQGTQVTVSS
polyreactivity (PSR sort gate): low polyreactivity

QVQLVESGGGLVQAGGSLRLSCAASGRIFNQYGMGWYRQAPGKERELVASITGSGGTTYYADSVKGRFTISRDNAKNTVYLQMNSLKPEDTAVYYCAAVFYGFVGYYNEDYWGQGTQVTVSS
polyreactivity (PSR sort gate): low polyreactivity

QVQHVESAGGLVQAGGSLRLSCAASGRTFSRYAMGWYRQAPGKERELVATITRGGSTNYADSVKGRFTISRDNAKNRVYLQMNSQKPEDTSVYYFIAGCFRYQGTLNHFYYWGQGTQVTVSS
polyreactivity (PSR sort gate): low polyreactivity

QDQLVESGGGIVQAGGSLRLSCAASGIIFGFYAMGWYIKAPGKERELVASISYSGGRTYYADSVKGRFTISRDNAKNTFYLQMISLKPEDTAVYYCAARLYWIPPSPSRYDYWGQGTQVTVSS
polyreactivity (PSR sort gate): high polyreactivity

QVQLVESGGGLVQAGGSLRLICAASGLTFGWYAMGWYRQAPGKERELVAAITYDGDSTYYADSVKGRFTISRDNAKNTVYLQMNSLKPEDTAVYYCAAEYGYGEMDSWGQGTQVTVSS
polyreactivity (PSR sort gate): high polyreactivity

QFQLVESGGGLVQAVGSLRLSCAASGITFYTYAMGWYRHAPGKESDFVSAITRSGGSTYYADSVKGRFTFSRDNAKNTVYLQMIILKPEDTAVYYCAVDIYFWSYGWWGPYDYWGQGTQVTVSS
polyreactivity (PSR sort gate): low polyreactivity

QVHLVESGGGLVQAGGSLRLSCAASGSTFAIYAMVWYRQAPGKERELVAAIRQRAGSTYYADSVKGRFTISRDNAKNTVYLQMNSLKPEDTAVHYCATATRPISRGYWGQGTQVTVSS
polyreactivity (PSR sort gate): low polyreactivity

QVQLEESGGGLVPAGGILRLSCAASGSIFSPNAIGWYRQAAGKEMELDASISSRGGSTYYADSVKGRFNISRDYAKNTVYLKMNSLKPEDTAVYYCAAAVQTRRGTRFDYWGQGTQVTVSS
polyreactivity (PSR sort gate): low polyreactivity

QVQLVESGGGLVQAGGSLRLSCAASGGTFYSYAMGWYRQAPGTERELVAAISRRGGSTYYADSVKGRFTISLDNAKNTVYLQMNSLKPEDTAVYYCNTYIYQVRDDYWGQGTQVTVSS
polyreactivity (PSR sort gate): high polyreactivity

QVQLVESGGGLVQAGGSLRLSCAASGRTFKYNAMGWYRQAPGKERELVAAISSTGSTNYADSVKGRFTISRDNAKNTVYLQMNSLKPEDTAVYYCAASYYFVQWGWYYYWGQGTQVTVSS
polyreactivity (PSR sort gate): low polyreactivity

QVQLVESGGGLVQAGGSLRLSCAASGRIFVVYAMGWYRQAPGKERELVASITWRGGSTYYADSVKGRFTISRDNAKNTVDLQMNSLKPEDTAVYYCAAELDVYVSIGSRFHFDYCGQGTQVTVSS
polyreactivity (PSR sort gate): low polyreactivity

QVQLVESGGGLVQAGGSLRLSCAASGFIFASYTLGWYRQAPGKERELVAAISRAGSTYYADSVKGRFTISRDNAKNTVYLQMNSLKPEDTAVYYCNAVSWRTSRYDYWGQGTQVTVSS
polyreactivity (PSR sort gate): high polyreactivity

QVQLVESGGGLVQAGGSLRLSCAASGRILARNAMGWYRQAPGKERELVAVISYSGGRTYYADSVKGRFTISRDNAKNTVYLQMNSLKPEDTAVYYCAASRSFQGNRYDYWGQGTQVTVSS
polyreactivity (PSR sort gate): high polyreactivity

QVQLVESGGGLVQAGGSLRLSCAASGFTLFTNAMGWYRQAPGKERELLARISLGGSTKYADSVKGRFTISRDNAKNTVYVQMNSLKPEDTAVYYCATGYYGYRYGYWGQATQVTVSS
polyreactivity (PSR sort gate): high polyreactivity

QVHLVESGGGLVHAGGSLRLSCAASGSIFPYYAMGWYRQAPGKETELVAAISRSGGSTYYADSVKGRFTISRDYAKNTVYLQMNSLKPDDTAVYYCAADYARYVRKTRYGSWGKGTQVTVSS
polyreactivity (PSR sort gate): high polyreactivity

QVQLVESGGGLVQAGGSLRLSCAASGIILAHYAMGWYRQAPGKERELVAGISRSGTRTYYADSVKGRFTISRDNAKNTVYLQMNSLKPEDTAVYYCNKDAYTYWYFEMGYWGQGTQVTVSS
polyreactivity (PSR sort gate): high polyreactivity

QVQLVESGGGLVQAGGSLRLSCAATGRIFYGYAMGWYRQAPVKERELVAAITRGVSTYYADSVKGRFTISRDNAKNTVYLQMNSLKPEDTAVYYCAIERRVRMDSWGQGTQVTVSS
polyreactivity (PSR sort gate): low polyreactivity
